Columns and labels:
[1] = system: human macrophages (THP1); assay: ELISA of immune cytokine secretion in THP1 under normal conditions; assay type: cell-based; details: THP1, 0.1, 0.2, 0.5 μM, 24 h
Protocol: Specifically, mouse bone marrow-derived macrophages (BMDMs) as mouse-derived immune cells were extracted from the mouse thighbone and shinbone, and then cultured in DMEM containing 10% fetal bovine serum (FBS) and antibiotics. Human macrophages (THP1) as human-derived immune cells were cultured in RPMI media containing 10% FBS and antibiotics.
The cultured cells were treated with AmTARS at 0.1 μM, 0.2 μM, and 0.5 μM for 24 h to obtain cell cultures. For cell removal, the media were centrifuged at 500×g for 10 min to obtain supernatants, which were then analyzed using an ELISA set (mouse interleukin (IL)-6, mouse IL-10, mouse tumor necrosis factor (TNF)-α, human IL-6, human IL-10, human TNF-α; BD Biosciences) to investigate the secretion of mouse- and human-derived immune cytokines.

[2] = system: human macrophages (THP1); assay: ELISA of immune cytokine secretion in LPS-treated THP1 (inflammatory environment); assay type: cell-based; details: THP1, LPS-induced inflammation, 0.1, 0.2, 0.5 μM, 24 h
Protocol: To determine whether AmTARS affects immune cytokine secretion when cellular inflammation was induced, mouse bone marrow-derived macrophages BMDMs as mouse-derived immune cells and human macrophages THP1 as human-derived immune cells were cultured by way of the same method as in Example 2.
Specifically, the cultured BMDMs and THP1 were treated with lipopolysaccharide (LPS) to induce an inflammatory response and were simultaneously treated with AmTARS at 0.1 μM, 0.2 μM, and 0.5 μM for 24 h to obtain cell cultures. The obtained cell cultures were analyzed for immune cytokine secretion by way of the same method as in Example 2.

[3] = system: mouse adipocyte 3T3-L1; assay: Immunoblot of insulin signaling in 3T3-L1 with PMA or TNF-α induced inflammation; assay type: cell-based; details: 0.5 μM AmTARS
Protocol: Next, to determine whether the anti-inflammatory function of AmTARS affected the regulation of metabolic disease-associated intracellular signaling, immunoblot analysis was performed using the mouse adipocyte 3T3-L1.
Specifically, 3T3-L1 cells were cultured in DMEM containing 10% bovine calf serum (BCS) and antibiotics under conditions of 5% CO2 and 37° C. The cells were treated with 2 μM phorbol 12-myristate 13-acetate (PMA) or 20 ng/ml TNF-α to create an inflammatory environment in the cultured cells. The cells were treated with 100 nM insulin and 0.5 μM AmTARS for 24 h, and then changes in intracellular signaling were investigated.

[4] = system: B cell-deficient μMut mice; assay: DSS-induced inflammatory bowel disease in B cell-deficient μMut mice; assay type: in vivo, mouse
Protocol: To determine whether the inflammatory bowel disease alleviation effect induced through the secretion of IL-10 cytokine by AmTARS corresponded to a B cell-mediated effect, DSS was administered to B cell-deficient μMut mice (μ heavy chain mutation mice, B cell depletion mice) by way of the same method as in Example 5 to induce inflammatory bowel disease, and AmTARS was administered.

[5] = target: T1, Toll-like receptor 2 (TLR2) (Homo sapiens, UniProt O60603); assay: Pull-down / in vitro interaction assay with TLR2; assay type: binding
T1 construct: 13; TLR2; 17; pIRES-FLAG; FLAG; Mammal; FLAG (C); expressed in transfected cells; host or cells: HEK 293T (human)
T1 sequence (O60603 21-784): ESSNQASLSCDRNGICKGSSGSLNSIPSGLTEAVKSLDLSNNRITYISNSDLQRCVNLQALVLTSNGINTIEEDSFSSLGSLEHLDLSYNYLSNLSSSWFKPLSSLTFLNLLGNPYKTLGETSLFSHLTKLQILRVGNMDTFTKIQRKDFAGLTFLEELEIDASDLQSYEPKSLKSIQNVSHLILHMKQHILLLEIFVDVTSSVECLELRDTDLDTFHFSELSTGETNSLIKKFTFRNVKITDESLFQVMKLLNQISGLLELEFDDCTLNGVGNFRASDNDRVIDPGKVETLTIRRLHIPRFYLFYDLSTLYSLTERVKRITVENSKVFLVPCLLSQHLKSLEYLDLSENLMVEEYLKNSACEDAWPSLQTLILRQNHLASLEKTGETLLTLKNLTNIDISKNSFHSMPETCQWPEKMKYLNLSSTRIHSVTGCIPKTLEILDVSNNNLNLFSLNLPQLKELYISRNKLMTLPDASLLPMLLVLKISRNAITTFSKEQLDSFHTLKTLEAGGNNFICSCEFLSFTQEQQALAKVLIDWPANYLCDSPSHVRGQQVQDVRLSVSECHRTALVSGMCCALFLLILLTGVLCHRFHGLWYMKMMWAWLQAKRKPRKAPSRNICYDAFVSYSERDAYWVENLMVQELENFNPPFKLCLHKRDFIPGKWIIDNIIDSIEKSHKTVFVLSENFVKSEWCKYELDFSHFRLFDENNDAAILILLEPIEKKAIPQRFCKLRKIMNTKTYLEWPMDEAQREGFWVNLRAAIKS
Protocol: Then, Strep-tagged AmTARS, AmTARS having deletions of two functional site (AmTARSΔ1Δ2), and FLAG-tagged TLR2 were transduced into human-derived HEK 293T cells through PEI, and thereafter, the cells were lysed using a lysis buffer containing 50 mM Tris-HCl (pH 7.5), 100 mM NaCl, 1% NP-40, 1 mM EDTA, 0.25% Na-deoxycholate, and a protease inhibitor cocktail. The cell lysates each were incubated with Strep Tactin beads and washed with a buffer containing 137 mM NaCl, 2.7 mM KCl, 10 mM Na2HPO4, 1.8 mM KH2PO4, and 1 mM EDTA, and proteins attached to the beads were eluted and analyzed by immunoblotting.
In addition, His-tagged AmTARS and FLAG-tagged protein were mixed at a ratio of 1:2, incubated with Ni-NTA beads, and then washed with a buffer containing 50 mM Tris-HCl (pH 8.0), 300 mM NaCl, 30 mM imidazole, and 1% NP-40, and the proteins attached to the beads were eluted and identified on SDS-PAGE gel.

phosphorylation of protein kinase B (AKT) ([3]; 3T3-L1, 100 nM insulin and 2 μM PMA, 24 h): again increased the phosphorylation
S6 kinase (S6K) ([3]; 3T3-L1, TNF-α, insulin): phosphorylated and activated
glycogen synthase kinase (GSK)-3β ([3]; 3T3-L1, TNF-α, insulin): phosphorylated and inhibited
insulin receptor substrate (IRS) ([3]; 3T3-L1, TNF-α, insulin): no significant change
interaction with TLR2 among candidates tested (pull-down) ([5]; HEK 293T cells, Strep-AmTARS and TLR2-FLAG): interacted only with TLR2
B1: Akkermansia muciniphila-derived threonyl-tRNA synthetase (TARS) (protein)
chain: MSEHKERKTLEERQQMSDLERLRHSCAHVLATAICRLWPDAQLAGGPAVDNGFYYDVELDHRISTEDFERIEEEMKKVVKENQVFQKEVISRADAMKMAESGELGALGPRSEPSRFKIDLLNDIPEDEEISLYRNGDFTDLCAGPHVGRTGNCKAFKIMSVASAFYKGDKNRPMLQRIYGTCFPNRTQLDEHLERLEEARRRDHRKLGRELGLFCIDESVGQGLILWKPKGALIRRSLQDFITEELDKLGYSQVYTPNIGKLDLYRTSGHFPYYQESQYAPIPERDAMEKLSQEGASCAELFNGLATGTIEGYMLKPMNCPHHIKIYANDAHSYRDLPVRLAEFGTVYRWEQSGELGGMTRVRGFTQDDAHIFCTPDQLAGEIRQCLGIVKTIFGTLGMTDYRVRLSMRDPESDKYVGSPENWDKAEQALREAAEWLGADYSEEAGEAAFYGPKIDFIVRDAIGREWQLGTVQVDYNLPERFDLHYTGADNKPHRPVMVHRAPFGSMERFTGLLIEHFEGKFPTWLSPEQVRVLPISDKVTDVAAAHRTALAARGVRVTVDETPDKIGAKIRNARLDRVPYMLVLGQREAEDGTVSVRHRDKGDLGAMPFEQFADLVAREIAERHISPVI
modifications: Akkermansia muciniphila TARS
secretion of IL-6 [1]: not secreted
secretion of IL-10 [1]: increased in a dose-dependent manner
secretion of TNF-α [1]: not secreted
secretion of IL-6 [2]: reduced in a dose-dependent manner
secretion of IL-10 [2]: increased in a dose-dependent manner
secretion of TNF-α [2]: reduced in a dose-dependent manner
phosphorylation of AKT ([3]; 3T3-L1, insulin resistance induced by 20 ng/ml TNF-α, 100 nM insulin): increased the phosphorylation
increase in B cells [4]: could not be shown
direct interaction with TLR2 (in vitro pull-down) ([5]; purified TLR2-FLAG and His-tagged proteins, Ni-NTA): interacts directly with TLR2 via the U2-containing catalytic domain (CD)

Source: patent US12636342B2, “TARS derived from Akkermansia muciniphila or fragment thereof, and use thereof” (KOREA RESEARCH INSTITUTE OF BIOSCIENCE AND BIOTECHNOLOGY, priority 2020, dated 2026)
